Data published in patent US20110229556A1, “LIPID-COATED POLYMER PARTICLES FOR IMMUNE STIMULATION” (Massachusetts Institute of Technology, priority 2010, published 2011).
Entries after “also recorded” stand apart in the source; their conditions may differ.

Key:
OVA-specific serum IgG = test: Serum total anti-OVA IgG ELISA after s.c. immunization; type: in vivo, BALB/c or C57B1/6 mice
Method: Antibody titer measurements. Total IgG titers from sera were measured using an ELISA by adsorbing OVA to flat-bottom transparent 96-well plates at room temperature overnight, blocking overnight with bovine serum albumin, adding serially-diluted serum (starting from a minimal dilution of 200×) for 2 hr, and then detecting bound OVA-specific IgG antibody using HRP-labeled anti-mouse IgG (Bio-Rad). Plates were washed between each step using 0.05% Tween-20 in PBS. HRP developed with tetramethylbenzidine was measured using a Molecular Devices SpectraMax Microplate Reader. Monoclonal mouse anti-OVA IgG1 (clone OVA-14, Sigma-Aldrich, St. Louis, Mo.) was included as a standard reference in each assay. Endpoint titers were defined as the highest dilution at which immunized serum ELISA signal exceeded the average+2 standard deviations of pre-immune sera analyzed in parallel. To interpret our titer values in more physiological terms, we used OVA-14 as a standard to determine the concentration of OVA-specific IgG as equivalents of this monoclonal antibody.

[1] = test system: naïve OT-I (CD8+) T-cells; test: Priming of naïve OT-I T-cells by particle-pulsed splenic DCs (CFSE dilution); type: cell-based, mice; settings: DCs pulsed with 10,000-fold higher doses of soluble OVA than the particle dose, with or without MPLA; not shown
Method: Responses of naïve CD4^+ or CD8^+ T-cells transgenically expressing T cell receptors specific for OVA-derived peptides were assessed by in vitro co-culture of OT-II or OT-I primary T-cells with particle-pulsed DCs. Primary dendritic cells were isolated from spleens of C57B1/6 mice by digesting spleens with collagenase and isolating DCs using a CD11c^+ magnetic bead isolation kit (Miltenyi Biotec). In parallel, naïve CD4^+ T-cells or CD8+ T-cells were isolated from OT-II or OT-I TCR-transgenic mice, respectively (Jackson Laboratories), and labeled with CFSE to trace cell division following the manufacturer's instructions. OVA-loaded particles with post-inserted MPLA or soluble OVA/MPLA were added to splenic DCs (12,500 cells/well) at titrated cell:antigen ratios (starting from 40:1 particles:DC, corresponding to 6.2 μg particles), and incubated for 3 hr in a total volume of 150 μL/well at 37° C. and 5% CO2. CFSE-labeled OT-I or OT-II cells (50,000 cells/well) were then added to DCs in a volume of 50 μL complete RPMI media. This total culture volume of 200 μL/well was incubated for 3 days at 37° C. and 5% CO2 to allow proliferation of T-cells, and CFSE dilution was then measured by flow cytometry.

OVA-specific IgG = test: Avidity of OVA-specific IgG (ELISA with 6M urea wash); type: in vivo, BALB/c mice; settings: BALB/c, 10 ng OVA, boost day 21, day 28 sera, 6M urea 10 min
Method: The avidity of IgG responses to immunization was measured using an ELISA analysis of serum binding in the presence of urea using a commonly reported procedure from the literature. Serum titer analysis was conducted in duplicate assay plates until serum adsorption was complete. At this point, one plate was incubated in the presence of 6M urea for 10 min followed by washing and detection of bound IgG on both plates as above. Avidity indices were defined as the serum dilution of urea-treated samples where the ELISA absorbance was 0.5 divided by the dilution of untreated samples giving the same absorbance.

Molecule: CCCCCCCCCCCCCCCCCCCCCCCCCC(=O)N[C@@H](CO[C@H]1O[C@H](CO)[C@H](O)[C@H](O)[C@H]1O)[C@H](O)[C@H](O)CCCCCCCCCCCCCC [αGC solution, α-galactosylceramide, reference compound]
- IgG titers 14 days after a single immunization, αGC dose titration (OVA-specific serum IgG; BALB/c, 2 ng OVA on microparticles with 10 ng, 100 ng, or 1 μg αGC (on particles or in solution 10 min before at same site)): only a fraction of mice had detectable titers; also recorded: equally effective

B1: ovalbumin (protein, UniProt P01012 2-386, looked up)
Ovalbumin: GSIGAASMEFCFDVFKELKVHHANENIFYCPIAIMSALAMVYLGAKDSTRTQINKVVRFDKLPGFGDSIEAQCGTSVNVHSSLRDILNQITKPNDVYSFSLASRLYAEERYPILPEYLQCVKELYRGGLEPINFQTAADQARELINSWVESQTNGIIRNVLQPSSVDSQTAMVLVNAIVFKGLWEKAFKDEDTQAMPFRVTEQESKPVQMMYQIGLFRVASMASEKMKILELPFASGTMSMLVLLPDEVSGLEQLESIINFEKLTEWTSSNVMEERKIKVYLPRMKMEEKYNLTSVLMAMGITDVFSSSANLSGISSAESLKISQAVHAAHAEINEAGREVVGSAEAGVDAASVSEEFRADHPFLFCIKHIATNAVLFFGRCVSP
notes: model protein antigen ovalbumin dissolved in saline
- OT-I proliferation [1]: minimal OT-I proliferation
- avidity: IgG binding following urea washes (OVA-specific IgG): no binding
- anti-OVA IgG titers (OVA-specific serum IgG; BALB/c, 10 ng OVA s.c. prime, boost with same dose 3 weeks later, 1.3 μg MPLA and 600 ng αGC where used): only a subset of mice responded
- time serum titers were maintained (OVA-specific serum IgG; BALB/c, 10 ng OVA s.c., boost 3 weeks later): not sustained in a majority of the mice

B2: SAT(PEG)4-modified OVA: ovalbumin modified with the heterobifunctional cross-linker SAT(PEG)4 for particle coupling (protein, UniProt P01012 2-386, looked up)
Ovalbumin: GSIGAASMEFCFDVFKELKVHHANENIFYCPIAIMSALAMVYLGAKDSTRTQINKVVRFDKLPGFGDSIEAQCGTSVNVHSSLRDILNQITKPNDVYSFSLASRLYAEERYPILPEYLQCVKELYRGGLEPINFQTAADQARELINSWVESQTNGIIRNVLQPSSVDSQTAMVLVNAIVFKGLWEKAFKDEDTQAMPFRVTEQESKPVQMMYQIGLFRVASMASEKMKILELPFASGTMSMLVLLPDEVSGLEQLESIINFEKLTEWTSSNVMEERKIKVYLPRMKMEEKYNLTSVLMAMGITDVFSSSANLSGISSAESLKISQAVHAAHAEINEAGREVVGSAEAGVDAASVSEEFRADHPFLFCIKHIATNAVLFFGRCVSP
modifications: SAT(PEG)4 cross-linker modified
notes: ovalbumin modified with the heterobifunctional cross-linker SAT(PEG)4 for particle coupling
- influence of SAT(PEG)4 modification on the protein's immunogenicity (OVA-specific serum IgG; data not shown): no significant influence
